The target in assay [1] is T1, CD137 on the surface of cells (activated human T cells; engineered CHO cells) (human, UniProt Q07011 24-255).
T1 construct: whole, on cells; also called human CD137; cell surface expressed CD137
As to the kind of experiment: flow cytometry on activated pan T cells gated CD8+ (donor D43867), anti-hFc APC MFI. On the procedure: Three antibodies were selected for further study. For such evaluations, purified pan T-cells (see above) were stimulated with anti-CD3/CD28 beads (cells:beads=1:1) for 72 hours in the presence of IL-2 (100 U/mL). 100 μL of activated T cells (1.0×10⁶ cells/mL) and 100 μL of serially diluted (5- or 10-fold dilutions) test article (antibody or bispecific diabody) was added to each well of microtiter assay plate(s), mixed and incubated at RT for 45 min. The cells were washed with FACS Buffer and secondary antibody (anti-human-Fc region-APC) was then added to each well; mixed and incubated at RT for 30 min. Cells were then washed FACS Buffer and T cell surface marker antibodies (anti-CD4 labeled with V510, and anti-CD8 labeled with FITC) were then added to each well; mixed and incubated at RT for 30 min. Cells were washed and resuspended in 100 μL FACS Buffer and analyzed by flow cytometry (BD LSR Fortessa or FACSCanto 11) for cell event collection. Data analysis were performed via FloJo v10.

The target of assay [2] is T2, HER2/neu on the surface of target cells (N87, JIMT-1, MCF-7, MDA-MB231) (UniProt P04626 23-1255, limits assumed).
T2 construct: whole, on cells
Nature of the assay: flow cytometry on N87 cells, anti-hFc APC MFI. On the procedure: (§1) CD137×TA Binding Molecules, DART-B, DART-D, DART-G and the control molecules DART-3 and DART-6 were additionally evaluated for their ability to bind to HER2/neu expressed on N87 cells (FIG. 13A) and JIMT-1 cells (FIG. 13B). For such evaluation, 100 μL of HER2/neu expressing target cells (1.0×1⁰⁶ cells/mL) and 100 μL of serially diluted (5- or 10-fold dilutions) test article (bispecific diabody) were added to each well of microtiter assay plate(s), mixed and incubated at RT for 45 min. The cells were washed with FACS Buffer and secondary antibody (anti-human-Fc region-APC) was then added to each well; mixed and incubated at RT for 30 min. Cells were washed and resuspended in 100 μL FACS Buffer and analyzed by flow cytometry (BD LSR Fortessa or FACSCanto 11) for cell event collection. Data analysis were performed via FloJo v10.

Assay [3] concerns the target T2, HER2/neu on the surface of target cells …. As to the kind of experiment: flow cytometry on N87 cells, anti-hFc APC MFI. This is another data set of the same source.
The target is the same in assay [4]. Nature of the assay: flow cytometry on MCF-7 cells, anti-hFc APC MFI.
Assay [5] has the same target. As to the kind of experiment: flow cytometry on JIMT-1 cells, anti-hFc APC MFI. Here is the method:
as §1

For assay [6] the target is unchanged. Nature of the assay: flow cytometry on JIMT-1 cells, anti-hFc APC MFI. The source holds these as a separate data set.
For assay [7], the target named is T1, CD137 on the surface of cells …. Nature of the assay: flow cytometry on activated CD8+ T cells (CD8 FITC), anti-hFc APC MFI.
Assay [8] shares this target. As to the kind of experiment: flow cytometry on CD137-expressing CHO cells (CHO/137), anti-hFc APC MFI.
The target is the same in assay [9]. The assay is described as above. The source holds these as a separate data set.
Assay [10] has as its target T3, extracellular portion of human CD137 fused to a histidine-containing peptide (human, UniProt Q07011 24-186).
T3 construct: extracellular domain; also called huCD137; His-tagged soluble human CD137
As to the kind of experiment: SPR (BIACORE); molecule captured on anti-human Fc; huCD137 6.25-100 nM; 1:1 Langmuir.

The target of assay [11] is T4, extracellular portion of cynomolgus monkey CD137 fused to a histidine-containing peptide (cynomolgus monkey, UniProt A9YYE7 24-186).
T4 construct: extracellular domain; also called cynoCD137
T4 sequence: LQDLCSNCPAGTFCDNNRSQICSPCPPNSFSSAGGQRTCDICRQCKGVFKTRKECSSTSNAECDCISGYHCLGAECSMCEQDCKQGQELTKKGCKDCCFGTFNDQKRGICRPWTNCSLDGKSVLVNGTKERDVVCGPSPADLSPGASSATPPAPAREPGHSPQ
As to the kind of experiment: SPR (BIACORE); molecule captured on anti-human Fc; cynoCD137 6.25-100 nM; 1:1 Langmuir.

Assay [12] has as its target T1, CD137 on the surface of cells …. As to the kind of experiment: flow cytometry on activated pan T cells (donor D46433, CD8 PE), anti-hFc APC MFI.
The target is the same in assay [13]. As to the kind of experiment: flow cytometry on activated CD8+ T cells (donor D53781, CD8 FITC), anti-hFc APC MFI.
Assay [14] has as its target T4, extracellular portion of cynomolgus …. As to the kind of experiment: SPR (BIACORE); molecule captured on anti-human Fc; cynoCD137 6.25-100 nM; column head ×10^-4 applied as printed.

The values below come from patent US20220406376A1 (MacroGenics, published 2022).

T1 sequence (Q07011 24-255, change not shown): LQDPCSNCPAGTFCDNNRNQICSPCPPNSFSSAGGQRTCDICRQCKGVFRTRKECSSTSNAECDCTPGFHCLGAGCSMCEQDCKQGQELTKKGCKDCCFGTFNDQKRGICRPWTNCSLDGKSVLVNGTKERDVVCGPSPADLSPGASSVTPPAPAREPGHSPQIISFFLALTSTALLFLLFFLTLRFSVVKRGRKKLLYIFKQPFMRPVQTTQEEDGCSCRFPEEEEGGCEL

B1: hCD137 MAB-3 (1B.3) (antibody, V domains shown)
VH: QVQLVQSGAEVKKPGASVKVSCKASGYTFTSYWINWVKQAPGQGLEWIGNIYPSDSYTNYNQKFKDKATITADKSTSTAYMELSSLRSEDTAVYYCTRDYGSAYSMSTWGQGTTVTVSS
VL: DIQMTQSPSSLSASVGDRVTITCRPSQDISNYLNWYQQKPDKTVKLLIYYTSRLRSGVPSRFSGSGSGTDFTFTISSLQPEDIATYFCQQGDTLPYTFGQGTKLEIK
Consider B1, for which, in assay [1], the “EC50 (read off the curve)” value is approximately 0.007 µg/mL.

B2: DART-G (bispecific antibody, human IgG1, kappa, L234A L235A)
heavy: QVQLVQSGAEVKKPGASVKVSCKASGYTFTNYGMNWVRQAPGQGLEWMGWINTNIGEPTYTEEFKGRVTMTRDTSISTAYMELSRLRSDDTAVYYCARDDGYGNRVSYWGQGTLVTVSSASTKGPSVFPLAPSSKSTSGGTAALGCLVKDYFPEPVTVSWNSGALTSGVHTFPAVLQSSGLYSLSSVVTVPSSSLGTQTYICNVNHKPSNTKVDKRVEPKSCDKTHTCPPCPAPEAAGGPSVFLFPPKPKDTLMISRTPEVTCVVVDVSHEDPEVKFNWYVDGVEVHNAKTKPREEQYNSTYRVVSVLTVLHQDWLNGKEYKCKVSNKALPAPIEKTISKAKGQPREPQVYTLPPSREEMTKNQVSLSCAVKGFYPSDIAVEWESNGQPENNYKTTPPVLDSDGSFFLVSKLTVDKSRWQQGNVFSCSVMHEALHNRYTQKSLSLSPGK
light: DIQMTQSPSSLSASVGDRVTITCKASQDISNYLSWFQQKPGKAPKTLIYRANRLQSGVPSRFSGSGSGTDFTLTISSLQPEDFATYYCLQHDEFPWTFGQGTKLEIKRTVAAPSVFIFPPSDEQLKSGTASVVCLLNNFYPREAKVQWKVDNALQSGNSQESVTEQDSKDSTYSLSSTLTLSKADYEKHKVYACEVTHQGLSSPVTKSFNRGEC
chain 1: QVQLVQSGAEVKKPGASVKVSCKASGYTFTNYGMNWVRQAPGQGLEWMGWINTNIGEPTYTEEFKGRVTMTRDTSISTAYMELSRLRSDDTAVYYCARDDGYGNRVSYWGQGTLVTVSSASTKGPSVFPLAPSSKSTSGGTAALGCLVKDYFPEPVTVSWNSGALTSGVHTFPAVLQSSGLYSLSSVVTVPSSSLGTQTYICNVNHKPSNTKVDKRVEPKSCDKTHTCPPCPAPEAAGGPSVFLFPPKPKDTLMISRTPEVTCVVVDVSHEDPEVKFNWYVDGVEVHNAKTKPREEQYNSTYRVVSVLTVLHQDWLNGKEYKCKVSNKALPAPIEKTISKAKGQPREPQVYTLPPSREEMTKNQVSLWCLVKGFYPSDIAVEWESNGQPENNYKTTPPVLDSDGSFFLYSKLTVDKSRWQQGNVFSCSVMHEALHNHYTQKSLSLSPGGGGSGGGSGGGDIQMTQSPSSLSASVGDRVTITCRPSQDISNYLNWYQQKPDKTVKLLIYYTSRLRSGVPSRFSGSGSGTDFTFTISSLQPEDIATYFCQQGDTLPYTFGQGTKLEIKGGGSGGGGQVQLVQSGAEVKKPGASVKVSCKASGYTFTSYWINWVKQAPGQGLEWIGNIYPSDSYTNYNQKFKDKATITADKSTSTAYMELSSLRSEDTAVYYCTRDYGSSYSFDYWGQGTTVTVSSGGCGGGEVAALEKEVAALEKEVAALEKEVAALEK
chain 2: DIQMTQSPSSLSASVGDRVTITCRPSQDISNYLNWYQQKPDKTVKLLIYYTSRLRSGVPSRFSGSGSGTDFTFTISSLQPEDIATYFCQQGDTLPYTFGQGTKLEIKGGGSGGGGQVQLVQSGAEVKKPGASVKVSCKASGYTFTSYWINWVKQAPGQGLEWIGNIYPSDSYTNYNQKFKDKATITADKSTSTAYMELSSLRSEDTAVYYCTRDYGSSYSFDYWGQGTTVTVSSGGCGGGKVAALKEKVAALKEKVAALKEKVAALKE
In the case of B2, the concentration for a half-maximal effect (EC50 (read off the curve)) in [2] was approximately 0.1 µg/mL; in assay [3], approximately 0.5 nM; in [4], approximately 0.09 nM; in assay [5] it was approximately 0.04 µg/mL; in assay [6], approximately 0.2 nM; in assay [7], approximately 0.03 µg/mL. In addition, the 50% effective concentration (EC50 (read off the curve)) is approximately 0.02 µg/mL in [8], approximately 0.02 µg/mL in [9], approximately 0.1 nM in assay [12] and approximately 0.03 µg/mL in assay [13]. The Kd was 114 nM in assay [10] and 115 nM in assay [11]. The off-rate constant (koff) in [10] turned out to be 0.042 s⁻¹; in assay [14] it was 0.045 s⁻¹. The on-rate (kon) in [10] was found to be 370000 M⁻¹ s⁻¹; in [11], 390000 M⁻¹ s⁻¹.
